Laboratory results as given in publication PMC5515730 (Nature Structural & Molecular Biology, 2016).

Biological target: the molecule itself
Test: cryo-EM structure

B1: HCoV-NL63 spike (S) glycoprotein ectodomain fused to a GCN4 trimerization motif (domain or fragment)
chain: FFTCNSNANLSMLQLGVPDNSSTIVTGLLPTHWFCANQSTSVYSANGFFYIDVGNHRSAFALHTGYYDANQYYIYVTNEIGLNASVTLKICKFSRNTTFDFLSNASSSFDCIVNLLFTEQLGAPLGITISGETVRLHLYNVTRTFYVPAAYKLTKLSVKCYFNYSCVFSVVNATVTVNVTTHNGRVVNYTVCDDCNGYTDNIFSVQQDGRIPNGFPFNNWFLLTNGSTLVDGVSRLYQPLRLTCLWPVPGLKSSTGFVYFNATGSDVNCNGYQHNSVVDVMRYNLNFSANSLDNLKSGVIVFKTLQYDVLFYCSNSSSGVLDTTIPFGPSSQPYYCFINSTINTTHVSTFVGILPPTVREIVVARTGQFYINGFKYFDLGFIEAVNFNVTTASATDFWTVAFATFVDVLVNVSATNIQNLLYCDSPFEKLQCEHLQFGLQDGFYSANFLDDNVLPETYVALPIYYQHTDINFTATASFGGSCYVCKPHQVNISLNGNTSVCVRTSHFSIRYIYNRVKSGSPGDSSWHIYLKSGTCPFSFSKLNNFQKFKTICFSTVEVPGSCNFPLEATWHYTSYTIVGALYVTWSEGNSITGVPYPVSGIREFSNLVLNNCTKYNIYDYVGTGIIRSSNQSLAGGITYVSNSGNLLGFKNVSTGNIFIVTPCNQPDQVAVYQQSIIGAMTAVNESRYGLQNLLQLPNFYYVSNGGNNCTTAVMTYSNFGICADGSLIPVRPRNSSDNGISAIITANLSIPSNWTTSVQVEYLQITSTPIVVDCATYVCNGNPRCKNLLKQYTSACKTIEDALRLSAHLETNDVSSMLTFDSNAFSLANVTSFGDYNLSSVLPQRNIRSSRIAGRSALEDLLFSKVVTSGLGTVDVDYKSCTKGLSIADLACAQYYNGIMVLPGVADAERMAMYTGSLIGGMVLGGLTSAAAIPFSLALQARLNYVALQTDVLQENQKILAASFNKAINNIVASFSSVNDAITQTAEAIHTVTIALNKIQDVVNQQGSALNHLTSQLRHNFQAISNSIQAIYDRLDSIQADQQVDRLITGRLAALNAFVSQVLNKYTEVRGSRRLAQQKINECVKSQSNRYGFCGNGTHIFSIVNSAPDGLLFLHTVLLPTDYKNVKAWSGICVDGIYGYVLRQPNLVLYSDNGVFRVTSRVMFQPRLPVLSDFVQIYNCNVTFVNISRVELHTVIPDYVDVNKTLQEFAQNLPKYVKPNFDLTPFNLTYLNLSSELKQLEAKTASLFQTTVELQGLIDQINSTYVDLKLLNRFENLIKRMKQIEDKIEEIESKQKKIENEIARIKKIKLVPRGSLE
modifications: N-linked glycans (glycosylation shown at 34 of 39 NXS/T sequons; paucimannosidic or high-mannose)
With B1 the “stoichiometry N” value was 3.
